Reference: patent publication US20200270346A1 (Merck Sharp & Dohme, published 2020)
Where two headings read alike, the source gives them in different places. One block for each binder: values may come before it.

Key:
human TIGIT-Fc protein [1] = target: T1, human TIGIT-Fc protein (human, UniProt Q495A1 25-141); experiment: SPR, Biacore T200, antibody captured on anti-mouse IgG, TIGIT-Fc in solution, 1:1 Langmuir fit
T1 construct: not shown: Fc part
T1 sequence: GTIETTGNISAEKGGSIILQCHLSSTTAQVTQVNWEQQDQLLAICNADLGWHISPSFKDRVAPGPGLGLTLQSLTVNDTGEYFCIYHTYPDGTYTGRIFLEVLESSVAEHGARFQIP
Method: (§1) The kinetic binding activity of anti-human TIGIT antibodies 14A6 and 31C6 (made as described in Example 1) and of commercial antibody MBSA43 was measured by surface plasmon resonance using a Biacore T200 system (Biacore, GE Healthcare, Piscataway, N.J.). Approximately 5000 RU of Anti-mouse IgG, GE Healthcare Catalog Number BR-1008-38, or approximately 13,000 RU of Goat Anti-Rat IgG Fc gamma, Fragment Specific, Jackson ImmunoResearch Catalog Number 112-006-071, was immobilized via amine coupling chemistry onto a Series S CM5 sensor chip, catalog number BR-1005-30. Mouse anti-human TIGIT clones, 31C6 and MBSA43, were each injected over the immobilized anti-mouse surfaces at 1 ug/mL for a capture level of 40 RU. Rat anti-human TIGIT clone 14A6 was injected over the immobilized anti-rat surfaces at 1 ug/mL for a capture level of 40 RU. HBS-EP+ buffer (BR-1006-69) was used as the running buffer with a flow rate of 30 μL/min. Varying concentrations of human TIGIT-His protein or TIGIT-Fc protein, ranging from 0.29 nM to 40 nM, at a flow rate of 45 μL/min were injected over the antibody surfaces. Following each Mouse anti-human TIGIT injection cycle for clones 31C6 and MBSA43, the Series S CM5 chip surface was regenerated using one three-minute injection of 10 mM Glycine pH 1.7 at a flow rate of […]. […]

[2] = target: T2, human TIGIT expressed on cells (human, UniProt Q495A1 25-244); experiment: cell-based ELISA, panel 'Binding to hTIGIT-CHO'
T2 construct: Used for human TIGIT on transfected CHO-K1 cells (cell ELISA), on hTIGIT-Jurkat cells and as endogenous TIGIT on BC4-clone 49 T cells (functional assays); also called hTIGIT; human TIGIT-CHO-K1 cells
T2 sequence: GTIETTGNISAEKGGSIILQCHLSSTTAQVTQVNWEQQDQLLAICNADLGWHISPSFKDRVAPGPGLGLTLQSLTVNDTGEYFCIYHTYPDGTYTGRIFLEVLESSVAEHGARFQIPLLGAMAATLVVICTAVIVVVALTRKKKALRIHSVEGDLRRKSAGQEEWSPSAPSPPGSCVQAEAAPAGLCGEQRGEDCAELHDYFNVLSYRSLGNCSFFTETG

[3] = target: T2, human TIGIT expressed on cells; experiment: cell-based ELISA blocking assay: binding of hCD155-hFc to human TIGIT-CHO-K1 cells, antibody titrated
[4] = target: T3, rhesus TIGIT expressed on CHO-K1 cells (rhesus monkey); experiment: cell-based ELISA, panel 'Binding to rhesus TIGIT-CHO'
T3 construct: also called rhesus TIGIT-CHOK1 cells; Cyno/Rhesus TIGIT
T3 sequence (chain, as listed by the source): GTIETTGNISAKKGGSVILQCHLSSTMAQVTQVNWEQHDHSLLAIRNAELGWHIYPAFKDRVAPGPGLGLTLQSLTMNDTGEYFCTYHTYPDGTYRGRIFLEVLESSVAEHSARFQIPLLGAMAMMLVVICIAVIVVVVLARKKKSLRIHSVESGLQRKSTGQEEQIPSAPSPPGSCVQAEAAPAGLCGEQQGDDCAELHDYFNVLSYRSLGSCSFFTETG

[5] = target: T2, human TIGIT expressed on cells; experiment: cell-based or functional assay
[6] = target: T4, Human TIGIT-His (extracellular domain of hTIGIT with a histidine tag) (human, UniProt Q495A1 25-141); experiment: SPR, Biacore T200, antibody captured on anti-mouse IgG, TIGIT-His in solution, 1:1 Langmuir fit
T4 construct: also called hTIGIT-His; hTIGIT-HIS
T4 sequence: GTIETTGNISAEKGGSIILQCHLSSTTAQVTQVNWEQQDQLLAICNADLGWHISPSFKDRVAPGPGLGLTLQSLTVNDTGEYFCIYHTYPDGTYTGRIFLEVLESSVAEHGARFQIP
Method: as §1

[7] = target: T2, human TIGIT expressed on cells; experiment: cell-based or functional assay; remark: listed apart in the source
[8] = target: T3, rhesus TIGIT expressed on CHO-K1 cells; experiment: cell-based ELISA, panel 'Binding to rhesus TIGIT CHO K1 cells'
[9] = target: T2, human TIGIT expressed on cells; experiment: cell-based ELISA, panel 'Binding to human TIGIT-CHO K1 cells'
human TIGIT-Fc protein [10] = target: T1, human TIGIT-Fc protein; experiment: SPR, Biacore T200, antibody captured on anti-rat IgG Fc, TIGIT-Fc in solution, 1:1 Langmuir fit
Method: as §1

[11] = target: T4, Human TIGIT-His (extracellular domain …); experiment: SPR, Biacore T200, antibody captured on anti-rat IgG Fc, TIGIT-His in solution, 1:1 Langmuir fit
Method: as §1

[12] = target: T3, rhesus TIGIT expressed on CHO-K1 cells; experiment: cell-based ELISA, panel 'Binding to rhesus TIGIT-CHOK1 cells'
[13] = target: T2, human TIGIT expressed on cells; experiment: cell-based ELISA, panel 'Binding to human TIGIT-CHO-K1 cells'
[14] = target: T2, human TIGIT expressed on cells; experiment: cell-based ELISA blocking assay: binding of hCD155-hFc to human TIGIT-CHO-K1 cells, antibody titrated; remark: listed apart in the source

- EC50 of IL-2 rescue in hTIGIT-Jurkat / hCD155-JY co-culture [7]: 0.62 µg/mL
B3: MEB125.31C6.A1.205 VH4/VL1 (antibody, human IgG1, V domains shown)
VH: EVQLVQSGAEVKKPGASVKVSCKASGYTFSSYVMHWVRQAPGQGLEWIGYIDPYNDGAKYAQKFQGRVTLTSDKSTSTVYMELSSLRSEDTAVYYCARGGPYGWYFDVWGQGTTVTVSS
VL: DIQMTQSPSSLSASVGDRVTITCRASEHIYSYLSWYQQKPGKAPKLLIYNAKTLAEGVPSRFSGSGSGTDFTLTISSLQPEDFATYYCQHHFGSPLTFGQGTRLEIK

- EC50 of IL-2 rescue in hTIGIT-Jurkat / hCD155-JY co-culture [7]: 1.2 µg/mL
B5: MEB125.31C6.A1.205 VH5/VL3 (antibody, human IgG1, V domains shown)
VH: EVQLVQSGAEVKKPGSSVKVSCKASGYTFSSYVMHWVRQAPGQGLEWIGYIDPYNDGAKYAQKFQGRVTLTSDKSTSTAYMELSSLRSEDTAVYYCARGGPYGWYFDVWGQGTTVTVSS
VL: DIQMTQSPSSLSASVGDRVTITCRASEHIYSYLSWYQQKPGKVPKLLIYNAKTLAEGVPSRFSGSGSGTDFTLTISSLQPEDVATYYCQHHFGSPLTFGQGTRLEIK

Second part, the binder before the results:

B1: 31C6 (mouse anti-human TIGIT antibody, clone MEB125.31C6.A1.205) (antibody, mouse IgG1, V domains shown)
VH: EVQLQQSGPELVKPGSSVKMSCKASGYTFSSYVMHWVKQKPGQGLEWIGYIDPYNDGAKYNEKFKGKATLTSDKSSSTAYMELSSLTSEDSAVYYCARGGPYGWYFDVWGAGTTVTVSS
VL: DIQMTQSPASLSASVGETVTITCRASEHIYSYLSWYQQKQGKSPQLLVYNAKTLAEGVPSRFSGSGSGTQFSLKINSLQPEDFGTYYCQHHFGSPLTFGAGTTLELK
notes: Mouse IgG1/kappa; also called 31C6 (mIgG1/K); MEB125.31C6.A1.205 mIgG1
- Kd (human TIGIT-Fc protein [1]): 10.9 pM
- EC50 (read off the curve) [2]: ~0.03 µg/mL
- IC50 (read off the curve) [3]: ~0.9 µg/mL
- EC50 (read off the curve) [4]: ~0.06 µg/mL
- EC50 of IL-2 rescue in hTIGIT-Jurkat / THP-1 co-culture [5]: 0.14 µg/mL
- EC50 of IL-2 rescue in hTIGIT-Jurkat / hCD155-JY co-culture [5]: 0.73 µg/mL
- IL-2 rescue relative to MBSA43 (10 µg/ml) [5]: 118%
- increase in IFNγ production, BC4-clone 49 T cells with JY-hCD155 cells [5]: ~2 fold
- Kd [6]: 34.4 pM

B2: Mouse human chimera MEB125.31C6.A1.205 IgG1 (antibody, V domains shown)
VH: EVQLQQSGPELVKPGSSVKMSCKASGYTFSSYVMHWVKQKPGQGLEWIGYIDPYNDGAKYNEKFKGKATLTSDKSSSTAYMELSSLTSEDSAVYYCARGGPYGWYFDVWGAGTTVTVSS
VL: DIQMTQSPASLSASVGETVTITCRASEHIYSYLSWYQQKQGKSPQLLVYNAKTLAEGVPSRFSGSGSGTQFSLKINSLQPEDFGTYYCQHHFGSPLTFGAGTTLELK
- EC50 of IL-2 rescue in hTIGIT-Jurkat / hCD155-JY co-culture [5]: 0.91 µg/mL

B4: MEB125.31C6.A1.205 VH5/VL4 (antibody, human IgG1, V domains shown)
VH: EVQLVQSGAEVKKPGSSVKVSCKASGYTFSSYVMHWVRQAPGQGLEWIGYIDPYNDGAKYAQKFQGRVTLTSDKSTSTAYMELSSLRSEDTAVYYCARGGPYGWYFDVWGQGTTVTVSS
VL: DIQMTQSPSSLSASVGDRVTITCRASEHIYSYLSWYQQKPGKVPKLLIYNAKTLAEGVPSRFSGSGSGTQFTLTISSLQPEDVATYYCQHHFGSPLTFGQGTRLEIK
- EC50 of IL-2 rescue in hTIGIT-Jurkat / hCD155-JY co-culture [7]: 1.2 µg/mL

B6: 28H5 (mouse anti-human TIGIT antibody, clone TC167.28H5.H5) (antibody, mouse IgG1, V domains shown)
VH: DVQLQESGPGLVKPSQSLSLTCTVTGYSITSDYAWNWIRQFPGNKLEWMGYISNSGSASYNPSLKSRISITRDTSKNQFFLQLNSVTTEDTATYYCATLIYYDYGGAMNFWGQGTSVTVSS
VL: DIVMTQSHKFMSTSVGDRVSITCKASQGVSTTVAWYQQKPGQSPKLLIYSASYRYTGVPDRFTGSGSGTDFTFTISSVQSEDLAVYYCQHYYSTPWTFGGGTKLEIK
notes: Mouse IgG1/kappa
- EC50 (read off the curve) [8]: ~0.05 µg/mL
- EC50 of IL-2 rescue in hTIGIT-Jurkat / THP-1 co-culture [5]: 0.24 µg/mL
- increase in IFNγ production, BC4-clone 49 T cells with JY-hCD155 cells [5]: ~2 fold
- EC50 (read off the curve) [9]: ~100 µg/mL

B7: 14A6 (rat anti-human TIGIT antibody, clone LB155.14A6.G2.A8) (antibody, V domains shown)
VH: EVQLQESGPGLVKPSQSLSLTCSVTGSSIASDYWGWIRKFPGNKMEWMGFITYSGSTSYNPSLKSRISITRDTSKNQFFLQLHSVTTDDTATYSCARMPSFITLASLSTWEGYFDFWGPGTMVTVSS
VL: DIQMTQSPSLLSASVGDRVTLNCKASQSIHKNLAWYQQKLGEAPKFLIYYANSLQTGIPSRFSGSGSGTDFTLTISGLQPEDVATYFCQQYYSGWTFGGGTKVELK
notes: also called 14A6 (rIgG2a/K)
- Kd (human TIGIT-Fc protein [10]): 3.12 pM
- Kd [11]: 3.09 pM
- EC50 (read off the curve) [12]: ~0.2 µg/mL
- EC50 of IL-2 rescue in hTIGIT-Jurkat / THP-1 co-culture [5]: 0.19 µg/mL
- IL-2 rescue relative to MBSA43 (10 µg/ml) [5]: 82%
- increase in IFNγ production, BC4-clone 49 T cells with JY-hCD155 cells [5]: ~2 fold
- EC50 (read off the curve) [13]: ~0.1 µg/mL
- IC50 (read off the curve) [14]: ~0.1 µg/mL
